Measurements: the DeepSol protein solubility set

Assay: soluble on expression in E. coli; label from the status in PepcDB or PDB records

## MRISLKQLNVFTVIAQEKTMTKAAERLYITKPAVSLSLSELEKNLGYKVFDRVNNRLVLNSEGRQLLPLADELLERAEVIEHQFATDSQLTGSLNIGASDTIGNHIAPVLLSKFQQQYPCDIQQLFISNTAQIINRLLEFQLDIGLVEGKAHHPKLNMIEWRRDDMYLVCSPSHPLATKAQVTLDDLEHSTWLLREEGSGSREYFINHIAANLNDWHESLQLHTTEAIINCCAENMGLACLSQLAAQNAINDGRLVKLAYNKTLARQYWLLVHKEKYQTPLLQYFMNFIQQK
  soluble on expression in E. coli: not soluble

## MNLCRECYGIIGEGVVAEKCEACCNAFDRVEEFAEEIVKKMSEYEFETFNVGSRVWGSLKALQEYLSLKGIEYEIKQRFNTKLARAIEEKTGSKRTLNPDITVLFDLETFTFELQIRPVFIYGRYLKRVRNISQTRWLCGYCNGEGCEVCNFTGKKYVSSVEELIAMPAVRLFKARDAKLHGAGREDVDARMLGTGRPFVLEVIEPRKRFVDLKELEEAINSQKWVAVRDLEYTDAEKVREVKTERHRKTYRAKVVFEEKVERERLIEALESLKGEIRQRTPMRVSHRRADRVRVRRLYDARLIHHTGRVAVVEFEAEAGLYIKELVSGDNGRTRPSLAEKVGVNARVDRLDVIAVSLEHHHHHH
  soluble on expression in E. coli: soluble

## QVQLVESGGGSVQAGGSLRLSCTASGYTIGPYCMGWFRQAPGGEREAVAAINMGGGITYYADSVKGRFTISRDNAKNTVTLQMNSLKPEDTAMYYCAADSTIYASYYECGHGLSTGGYGYDSWGQGTQVTVSSRGRHHHHHH
  soluble on expression in E. coli: soluble

## MGSDKIHHHHHHMIEVEIDKDSGFCFGVVTAIESAERELGNTDTLYCLGDIVHNSLEVERLEHMGLHTIDHEGLSRLRDRKVLLRAHGEPPSTYALAKRNNITIIDATCPVVLRLQRKIHKCYQETRANNTQLVIYGKKGHAEVNGLVGQTEGTAIVIEKIEDLDRLDFTRAISLFSQTTKSLDGFKAVVAEIKQRMAEGVEFNYYDTICRQVANRLPNIKAFASSHDWVYFVAGRKSSNGKMLFEECRKANPNTLFISEVSEITEPLPEGVRRVGVCGATSTPKWLMEEVAVRIKELNASE
  soluble on expression in E. coli: not soluble

## MGSDKIHHHHHHMSLFNLSLVTFEIDHEDCWSKLTSSFPVQVKTIFAKPSKGKDYILGMDEVKTYNRRVFKDFLKSFKKEKSIYEIIQILELDSRRGIYRILFKERYENMIMSIIENYMTLYIKDLIKEGNERLLLIMPSSDVTMLKRDLESIGKIHYFNAKLVNFNDFVPTFFDFSEQERNAVLHAIRLGYYEYPRRINLEELGKIMGISKPTLEEYLRKAEKKIMSKIFREFYQQDLLFHSPDY
  soluble on expression in E. coli: not soluble

## MNKTILALDTATEACSVALLHNGNITTLDELSPRNHTQRILPMVDELLSQANISIKQVDVLAFGRGPGSFTGVRVGVSVAQGLALGANLPVVAISNLLAMAQAAYQQLRANNVIALIDARMNEVYFAQYQRIGEHWHTIVEEQVCSPETAIAQMKINDNSVVVGTGWAAYPQFYVAKLPLSVSDISLPSAKDMLELALKAVENGELQTALDIEPIYLRNEVTWQKLPHKRLEHHHHHH
  soluble on expression in E. coli: soluble

## SADKEKKKKESILDLSKYIDKTIRVKFQGGREASGILKGFDPLLNLVLDGTIEYMRDPDDQYKLTEDTRQLGLVVCRGTSVVLICPQDGMEAIPNPFIQQQDA
  soluble on expression in E. coli: soluble

## PHFLILNGPNVNRLGSREPEVFGRQTLTDIETDLFQFAEALHIQLTFFQSNHEGDLIDAIHEAEEQYSGIVLNPGALSHYSYAIRDAVSSISLPVVEVHLSNLYAREEFRHQSVIAPVAKGQIVGLGAEGYKLAVRYLLSQQG
  soluble on expression in E. coli: soluble

## MKIYCCLNTVGFFMDGCGVIPPDSKEITAEHWQSLLKSQAEGGVIDFSVFPPSIKEVIRTHDDEVADANFQKQMLISDATDFINSRQWQGKAALGRLKEDELKQYNLWLDYLEALELVDTSSAPDIEWPTPPAVQARLEHHHHHH
  soluble on expression in E. coli: soluble

## MSCVQQQRRSTGLRIAERLNKYITLPNRHSFTVDSKDVFQRGQVLSYIRSKAPFLLEHISEAKERLITVTSRGLMIIYENDDHGLVIDLRSARNVLCTADRSKKQRHFRCHIKIRMQRGNVHLFVGHNDVHKWTCAIMRAAGKCLPSTEPRDDGSLNVAMMTAVEDSGIFEEMSSTSSASYDYDEDDEVDEVKPTAIEQIPLPHVSVRSLRQKLEKELVLKPKEQVLAEQQHKANCDEPSFVSEIFCTPRAVFSDETVVLLEPTNARERREYEAQADRENQWWTRSLRC
  soluble on expression in E. coli: not soluble

## MIPMSETKNELEILLEKAATEPAHRPAFFRTLLESTVWVPGSAAEGEAIVEDSALDLQHWEKEDGTTVIPFFTSLEALQQAVEDEQAFVVMPARTLFEMTLGETLFLNAKLPTGKEFMPREISLLLAEEGSPLSTQEVLEGGESLILSEVAEPPSQMIDSLTTLFKTIKPVKRAFLCAIKEHADAQPNLLIGIEADGEIEEIIHAAGNVATDTLPGDEPIDICQVRKGEQGISHFITEHIAPFYERRWGGFLRDFKQNRII
  soluble on expression in E. coli: not soluble

## MGTFNNSIQEKIEKLQKTVDTLLHMGENMDCICVDDLSLLNKEIHEQINDLYPYHGKTAEQEAALCLSLLMGYSVSMYANSEDEAKKKTVLRRSQMILKNQLPSPLKIQLHTIYDKLLS
  soluble on expression in E. coli: not soluble

## MSLTNQVTYLFFHGMKQISEHLFTTEEQAIIARSKAEGSYMKAPNGQATNLNKKQWAQVRTRAFREWFGDWENNPDEASKVRDANGEPLVVYHGTPISRDQAADRSKFRIADDWEIQTINAPFHTFRGGAYNGLIFTSLTEEKARSIGETRSMSIPDSEDGREQWTTDSYVYDLFVNARQPFDVKNPNAVKDILDALEGQLTAYDFYLGMEVPVSRKEAEKILEGGNSWRVVETPSMQEIIRSRGYDAIHALDEGVQYMAVFAPNQLKASGKYLYSERNTGVFSPGNNDIRFREVHHGVPASFTGYRSMKTETVRNDNIPAVLAALREKLEDTEQEWQDRILDYIAENYPTQTTVSAQTRSPEGLKEREAMKKDKTLRKMKEEAVAALNAADEKVMEAFKKENGDILFREVKENDGGKSLVGLHNISEEKLLKALKLGGLANPSAAVIDIARQSHEGYGEISLILPSSMIDKRTGRNAGTFSGDAWTPVYPQIERQFSGDGSGRVRDAISRLPQEMQPNVRSAWNSYMDGRDEGSAFAYQFLYERGEAPEFRKIEPLFGEHLRNRISAIDALDDYDERNTALLEVYIEENFGGDQTKFKDYIETRKRVLQDKEGHHHHHH
  soluble on expression in E. coli: not soluble

## MLSALRTAGAVGTRRLASTQAIASNSEAPKGIATTGTPFLNPSSKAEYALARLDDVLNLAQRGSIWPLTFGLACCAVEMMHFAAPRYDMDRYGVVFRASPRQADLIFVAGTVTNKMAPALRRIYDQMPEAKWVISMGSCANGGGYYHYAYSVLRGCDRVIPVDIYVPGCPPTAEALLYGVLQLQKKIKRKREAQLWYRR
  soluble on expression in E. coli: not soluble

## MDEGDKKSPISQVHEIGIKRNMTVHFKVLREEGPAHMKNFITACIVGSIVTEGEGNGKKVSKKRAAEKMLVELQKL
  soluble on expression in E. coli: soluble

## MGSDKIHHHHHHDDNEIEIPKAPVLEKAQLALAIKSEEGAVTKTGETTPTDADVNTLTVGVFGVDGWSVIYTKDATPNSDGTKDVGPQEVYAGEAHVVVVANAAPVIQTELAKAKDITDFIETTINLSDETLTKGLTMSSKVLDVTLVANTTNYIGYDDEVGDITVKDISGKEVYGAGPVPLVRDVASIALAGADIGNPENANYESKSFVLKEVFIASAKGVSSVASTEEWGTIEKDFFGDTHFGYLDYKVGLLFLTSPNNIDEGSYKKGLQTKYDALAKKHVENDPALNHEFYVYENTKGEVKSGESNVNEAYANHTLLIVKGDYTYLPQGAKESITKENCYYAIPVGEEVTIDGTEKRSKFYVQRNYKYEISLTIIGPGSEIPYDPMISTNVSASVKVEPWNVKTIHEEVE
  soluble on expression in E. coli: not soluble

## MGHHHHHHSHMIVNVIGAGLAGSEVAYNLGKRGIRVRLFEMRPKKMTEVHKTGYFAELVCSNSLKSEDITNAEGLLKAEMRLMGSITLEAAEKARVPSGKALAVDRNIFAKEVTEVIERLESVEIIREEVTEFDPEEGIWVVATGPATSDGLLPFLKKLLGDDLLFFFDAVSPIVTFESIDMECAFWGDRFGKGKDYINCPLTKEEYEEFWKALVEAEVIEMEDFDRKLLFERCQPIEEIARSGKDALRYGPLRPTGLVDPRTGKEPYAVVQLRREDKEGRFYSLVGFQTRLKWSEQKRVLRKIPCLRNAEIVRYGVMHRNVYINSPKLLDIFFRLKKHPNIFFAGQITGVEGYMESAASGIYVAYNVHRILKGLSPLKLPEETMMGALFSYIIEKVEGDLKPMYANFGLLPPLKVRVKDKFEKRKKLAERAIETMKKFLEENPW
  soluble on expression in E. coli: soluble
